Data from CN115925945A (GUANGDONG FEIPENG PHARMACEUTICAL CO LTD, dated 2023).

Target: T1, 人TIGIT (全长, 表达于CHO工程细胞CHO-hTIGIT) (human, UniProt Q495A1 22-244)
T1 construct: whole, on cells
T1 sequence (looked up): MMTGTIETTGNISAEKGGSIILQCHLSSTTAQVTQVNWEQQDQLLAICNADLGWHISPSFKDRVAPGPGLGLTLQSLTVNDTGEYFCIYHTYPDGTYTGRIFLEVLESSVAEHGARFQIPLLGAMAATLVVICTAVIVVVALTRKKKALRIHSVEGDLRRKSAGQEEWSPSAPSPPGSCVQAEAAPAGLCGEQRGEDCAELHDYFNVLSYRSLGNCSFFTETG
Experiment: in vitro binding activity after stress tests (acid, base, freeze-thaw, high temperature)

binding result: binds
B1: 抗TIGIT人源化抗体15H10L3 (R0774), hIgG1亚型 (antibody, V domains shown)
VH: QVQLVQSGAEVKKPGSSVKVSCKASGYSFTSYWMNWVRQAPGQGLEWIGMIRPSDSETRLNQMFKDRVTITVDKSTSTAYMELSSLRSEDTAVYYCAGIHDYGHGAYWGQGTLVTVSS
VL: DIQMTQSPSSLSASVGDRVTITCRASENIYSNLAWYQQKPGKSPKLLVYAASHLPDGVPSRFSGSGSGTDYSLTISSLQPEDFATYYCQHFWGTPRTFGQGTKLEIKR
notes: Full-length chains printed for R0774 (hIgG1 with K214R/D356E/L358M, human kappa); Humanized from TIGIT-5 murine mAb; also called 15H10L3-hIgG1
